Data on one substance can be found in paper PMC12173652.

This assay has as its target epidermal growth factor receptor (EGFR) (human (endogenous in HeLa)) (UniProt P00533).

Consider “pIII::EGF fusion displayed on the helper phage M13SW7-EGF (epidermal growth factor, GGGS linker, M13 minor coat protein pIII) (from UniProt P69168 19-424)”, for which the fold difference in luciferase expression (EGF^+/EGF^−), A549, mini phagemid, +TurboFect, 96 h came to 9.96 fold; the fold difference in luciferase expression (EGF^+/EGF^−), HeLa, full phagemid, +TurboFect, 96 h amounted to 261 fold; the fold difference in luciferase expression (EGF^+/EGF^−), HeLa, mini phagemid, +TurboFect, 96 h worked out at 705 fold; the fold difference in luciferase expression (EGF^+/EGF^−), HeLa, mini phagemid, −TurboFect, 96 h was 25.6 fold. This substance displayed a fold difference in luciferase expression (EGF^+/EGF^−), MRC-5, full phagemid, −TurboFect, 96 h of 4.14 fold and a fold difference in luciferase expression (EGF^+/EGF^−), MRC-5, mini phagemid, +TurboFect, 96 h of 5.73 fold.
